{
  "source": "patent US20260092093A1",
  "about": "(TJ BIOPHARMA SHANGHAI, published 2026)",
  "binders": {"B1": {"name": "IL-18 variant polypeptide MM6 (ligand)", "chain": "YFAKLYSKLSVIRNLNDQVLFIDQGNRPLFEDMTDSDCRDNAPRTIFIISMYKRSSLRGMAVTISVKCEKISTLSCENKIISFKEMNPPDAIKDTKSDIIFFQRSVPGHDNKMQFESSSYEGYFLACEKERDLFKLILKKEDELGDRSIMFTVQNED"}, "B2": {"name": "IL-18 variant polypeptide M16 (ligand)", "chain": "B1 chain with A3P, Y6R, R54S, S56R, L57N, A91G, R104S"}, "B3": {"name": "IL-18 variant polypeptide M1 (ligand)", "chain": "B1 chain with A3P, Y6K, R54H, S56D, L57R, A91V, R104V"}, "B4": {"name": "IL-18 variant polypeptide M9 (ligand)", "chain": "B1 chain with A3P, Y6R, R54W, S56R, L57A, A91S, R104S"}, "B5": {"name": "IL-18 variant polypeptide M18 (ligand)", "chain": "B1 chain with A3P, Y6R, R54S, S56R, L57R, A91G, R104S"}, "B6": {"name": "IL-18 variant polypeptide M2 (ligand)", "chain": "B1 chain with A3S, Y6K, R54W, S56P, L57D, A91G, R104T"}, "B7": {"name": "IL-18 variant polypeptide M22 (ligand)", "chain": "B1 chain with A3P, Y6R, R54Y, S56R, L57G, A91K, R104S"}, "B8": {"name": "IL-18 variant polypeptide M23 (ligand)", "chain": "B1 chain with A3P, Y6R, R54Y, S56T, L57R, A91N"}, "B9": {"name": "IL-18 variant polypeptide M26 (ligand)", "chain": "B1 chain with A3P, Y6R, R54H, S56D, L57K, A91V, R104Y"}, "B10": {"name": "IL-18 variant polypeptide M7 (ligand)", "chain": "B1 chain with A3P, Y6R, R54H, S56T, L57A"}, "B11": {"name": "IL-18 variant polypeptide M5 (ligand)", "chain": "B1 chain with A3E, Y6T, R54W, S56P, L57W, A91V, R104T, N155K"}, "B12": {"name": "IL-18 variant polypeptide M14 (ligand)", "chain": "B1 chain with A3N, Y6K, R54P, L57S, A91R, R104A"}},
  "key": {"[1]": {"target": "T1, hIL-18 receptor (hIL-18Rα and hIL-18Rβ) (human, UniProt Q13478 19-541; O95256 20-599)", "T1 sequence (looked up) 1": "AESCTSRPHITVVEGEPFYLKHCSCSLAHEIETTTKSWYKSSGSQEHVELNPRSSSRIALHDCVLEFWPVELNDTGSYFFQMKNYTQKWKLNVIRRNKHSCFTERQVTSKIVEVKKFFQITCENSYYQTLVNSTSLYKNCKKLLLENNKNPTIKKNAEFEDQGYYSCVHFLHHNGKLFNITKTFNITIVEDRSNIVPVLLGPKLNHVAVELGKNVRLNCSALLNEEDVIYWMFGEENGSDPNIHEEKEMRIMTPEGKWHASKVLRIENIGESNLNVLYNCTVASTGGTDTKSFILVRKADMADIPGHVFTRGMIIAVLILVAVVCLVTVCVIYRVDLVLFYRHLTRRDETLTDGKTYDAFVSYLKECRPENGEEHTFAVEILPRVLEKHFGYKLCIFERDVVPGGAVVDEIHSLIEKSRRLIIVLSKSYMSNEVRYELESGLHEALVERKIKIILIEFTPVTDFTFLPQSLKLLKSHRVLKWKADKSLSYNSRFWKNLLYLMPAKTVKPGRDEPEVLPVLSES", "T1 sequence (looked up) 2": "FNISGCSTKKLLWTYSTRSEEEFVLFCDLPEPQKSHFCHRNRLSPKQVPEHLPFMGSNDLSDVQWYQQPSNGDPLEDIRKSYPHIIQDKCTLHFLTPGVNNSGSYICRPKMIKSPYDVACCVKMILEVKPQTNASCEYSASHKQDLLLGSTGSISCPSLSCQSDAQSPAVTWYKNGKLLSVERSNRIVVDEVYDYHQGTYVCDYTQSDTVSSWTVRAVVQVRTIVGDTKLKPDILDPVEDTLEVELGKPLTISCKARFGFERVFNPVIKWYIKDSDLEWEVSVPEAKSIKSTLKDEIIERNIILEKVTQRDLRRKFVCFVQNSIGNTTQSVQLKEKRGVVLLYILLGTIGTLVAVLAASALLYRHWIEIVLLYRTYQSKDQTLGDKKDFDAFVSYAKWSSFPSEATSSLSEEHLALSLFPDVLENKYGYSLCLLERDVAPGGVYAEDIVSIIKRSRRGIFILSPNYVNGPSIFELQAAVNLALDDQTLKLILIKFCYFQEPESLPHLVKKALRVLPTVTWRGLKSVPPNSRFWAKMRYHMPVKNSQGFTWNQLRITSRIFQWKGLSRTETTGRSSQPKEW", "assay": "cell-based or functional assay"}, "hIL-18BP-hFc": {"target": "T2, hIL-18BP-hFc (human, UniProt O95998 31-194, limits assumed)", "T2 sequence (looked up)": "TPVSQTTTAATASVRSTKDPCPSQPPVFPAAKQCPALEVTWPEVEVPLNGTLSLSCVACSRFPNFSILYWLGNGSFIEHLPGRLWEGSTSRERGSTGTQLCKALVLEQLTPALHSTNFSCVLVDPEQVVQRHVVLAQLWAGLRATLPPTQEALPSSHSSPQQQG", "assay": "cell-based or functional assay"}},
  "note": "Where a chain is given by its changes, count along the chain named.",
  "data": [
    {"binder": "B1", "values": [
      {"measurement": "EC50 (nM), hIL-18 reporter assay", "setting": "[1]", "value": 1, "unit": "nM"},
      {"measurement": "EC50 (nM) in the Presence of 1 µg/mL hIL-18BP-hFc, hIL-18 reporter assay", "setting": "hIL-18BP-hFc", "value": 1.5, "unit": "nM"},
      {"measurement": "EC50 Fold Change (+BP/-BP), hIL-18 reporter assay", "setting": "hIL-18BP-hFc", "value": 1.5, "unit": "fold"}
    ]},
    {"binder": "B2", "values": [
      {"measurement": "EC50 (nM), hIL-18 reporter assay", "setting": "[1]", "value": 0.29, "unit": "nM"},
      {"measurement": "EC50 (nM) in the Presence of 1 µg/mL hIL-18BP-hFc, hIL-18 reporter assay", "setting": "hIL-18BP-hFc", "value": 0.34, "unit": "nM"},
      {"measurement": "EC50 Fold Change (+BP/-BP), hIL-18 reporter assay", "setting": "hIL-18BP-hFc", "value": 1.17, "unit": "fold"}
    ]},
    {"binder": "B3", "values": [
      {"measurement": "EC50 (nM), hIL-18 reporter assay", "setting": "[1]", "value": 1.45, "unit": "nM"},
      {"measurement": "EC50 (nM) in the Presence of 1 µg/mL hIL-18BP-hFc, hIL-18 reporter assay", "setting": "hIL-18BP-hFc", "value": 3.45, "unit": "nM"},
      {"measurement": "EC50 Fold Change (+BP/-BP), hIL-18 reporter assay", "setting": "hIL-18BP-hFc", "value": 2.38, "unit": "fold"}
    ]},
    {"binder": "B4", "values": [
      {"measurement": "EC50 (nM), hIL-18 reporter assay", "setting": "[1]", "value": 0.43, "unit": "nM"},
      {"measurement": "EC50 (nM) in the Presence of 1 µg/mL hIL-18BP-hFc, hIL-18 reporter assay", "setting": "hIL-18BP-hFc", "value": 0.33, "unit": "nM"},
      {"measurement": "EC50 Fold Change (+BP/-BP), hIL-18 reporter assay", "setting": "hIL-18BP-hFc", "value": 0.77, "unit": "fold"}
    ]},
    {"binder": "B5", "values": [
      {"measurement": "EC50 (nM), hIL-18 reporter assay", "setting": "[1]", "value": 0.58, "unit": "nM"},
      {"measurement": "EC50 (nM) in the Presence of 1 µg/mL hIL-18BP-hFc, hIL-18 reporter assay", "setting": "hIL-18BP-hFc", "value": 0.56, "unit": "nM"},
      {"measurement": "EC50 Fold Change (+BP/-BP), hIL-18 reporter assay", "setting": "hIL-18BP-hFc", "value": 0.97, "unit": "fold"}
    ]},
    {"binder": "B6", "values": [
      {"measurement": "EC50 (nM), hIL-18 reporter assay", "setting": "[1]", "value": 0.27, "unit": "nM"},
      {"measurement": "EC50 (nM) in the Presence of 1 µg/mL hIL-18BP-hFc, hIL-18 reporter assay", "setting": "hIL-18BP-hFc", "value": 0.19, "unit": "nM"},
      {"measurement": "EC50 Fold Change (+BP/-BP), hIL-18 reporter assay", "setting": "hIL-18BP-hFc", "value": 0.7, "unit": "fold"}
    ]},
    {"binder": "B7", "values": [
      {"measurement": "EC50 (nM), hIL-18 reporter assay", "setting": "[1]", "value": 7.2, "unit": "nM"},
      {"measurement": "EC50 (nM) in the Presence of 1 µg/mL hIL-18BP-hFc, hIL-18 reporter assay", "setting": "hIL-18BP-hFc", "value": 7.5, "unit": "nM"},
      {"measurement": "EC50 Fold Change (+BP/-BP), hIL-18 reporter assay", "setting": "hIL-18BP-hFc", "value": 1.04, "unit": "fold"}
    ]},
    {"binder": "B8", "values": [
      {"measurement": "EC50 (nM), hIL-18 reporter assay", "setting": "[1]", "value": 0.8, "unit": "nM"},
      {"measurement": "EC50 (nM) in the Presence of 1 µg/mL hIL-18BP-hFc, hIL-18 reporter assay", "setting": "hIL-18BP-hFc", "value": 1.4, "unit": "nM"},
      {"measurement": "EC50 Fold Change (+BP/-BP), hIL-18 reporter assay", "setting": "hIL-18BP-hFc", "value": 1.75, "unit": "fold"}
    ]},
    {"binder": "B9", "values": [
      {"measurement": "EC50 (nM), hIL-18 reporter assay", "setting": "[1]", "value": 0.068, "unit": "nM"},
      {"measurement": "EC50 (nM) in the Presence of 1 µg/mL hIL-18BP-hFc, hIL-18 reporter assay", "setting": "hIL-18BP-hFc", "value": 0.094, "unit": "nM"},
      {"measurement": "EC50 Fold Change (+BP/-BP), hIL-18 reporter assay", "setting": "hIL-18BP-hFc", "value": 1.38, "unit": "fold"}
    ]},
    {"binder": "B10", "values": [
      {"measurement": "EC50 (nM), hIL-18 reporter assay", "setting": "[1]", "value": 0.15, "unit": "nM"},
      {"measurement": "EC50 (nM) in the Presence of 1 µg/mL hIL-18BP-hFc, hIL-18 reporter assay", "setting": "hIL-18BP-hFc", "value": 0.25, "unit": "nM"},
      {"measurement": "EC50 Fold Change (+BP/-BP), hIL-18 reporter assay", "setting": "hIL-18BP-hFc", "value": 1.67, "unit": "fold"}
    ]},
    {"binder": "B11", "values": [
      {"measurement": "EC50 (nM), hIL-18 reporter assay", "setting": "[1]", "value": 0.22, "unit": "nM"},
      {"measurement": "EC50 (nM) in the Presence of 1 µg/mL hIL-18BP-hFc, hIL-18 reporter assay", "setting": "hIL-18BP-hFc", "value": 0.21, "unit": "nM"},
      {"measurement": "EC50 Fold Change (+BP/-BP), hIL-18 reporter assay", "setting": "hIL-18BP-hFc", "value": 0.95, "unit": "fold"}
    ]},
    {"binder": "B12", "values": [
      {"measurement": "EC50 (nM), hIL-18 reporter assay", "setting": "[1]", "value": 0.04, "unit": "nM"},
      {"measurement": "EC50 (nM) in the Presence of 1 µg/mL hIL-18BP-hFc, hIL-18 reporter assay", "setting": "hIL-18BP-hFc", "value": 0.03, "unit": "nM"},
      {"measurement": "EC50 Fold Change (+BP/-BP), hIL-18 reporter assay", "setting": "hIL-18BP-hFc", "value": 0.75, "unit": "fold"}
    ]}
  ]
}
